According to patent US20260250399A1 (VIRIDIAN THERAPEUTICS, published 2026):

Key:
[1] = target: T1, IGF-1R on cells (A549 human lung adenocarcinoma cells; primary human ocular choroid fibroblasts, HOCF) (human, UniProt P08069 31-1367); assay: cell-based or functional assay
[2] = target: T1, IGF-1R on cells (A549 human lung …); assay: flow cytometry on A549 cells, binding dose response curve
Experimental: (§1) Cell binding: A549 human lung adenocarcinoma cells or primary human ocular choroid fibroblasts (HOCF) were incubated with varying concentrations of VRDN-5000 or teprotumumab. A single dose 50 nM IgG1 isotype control was used as negative control. Unbound antibody was removed by washing, and the cells were incubated with an Alexa Fluor 488-goat anti-human antibody and a cell impermeable dye to gate live cells. The median fluorescence intensity (MFI) of viable cells was measured by flow cytometry and the data were analyzed using FlowJo software. Dose curves were fitted using a non-linear regression model; log (agonist) vs response-variable slope (four parameters).
VRDN-5000 Binds With High Affinity To IGF-1R On A549 Cells. As illustrated in FIG. 3A-C, VRDN-5000 binding to A549 cells was assessed by flow cytometry and found to have similar binding distribution as teprotumumab at three different concentrations.

[3] = target: T1, IGF-1R on cells (A549 human lung …); assay: flow cytometry on HOCF cells, binding dose response curve
Experimental: as §1
FIG. 5A-B illustrate VRDN-5000 binding to HOCF cells, which was assessed by flow cytometry and found to have largely similar binding as teprotumumab at three different concentrations.

T1 sequence (P08069 31-1367): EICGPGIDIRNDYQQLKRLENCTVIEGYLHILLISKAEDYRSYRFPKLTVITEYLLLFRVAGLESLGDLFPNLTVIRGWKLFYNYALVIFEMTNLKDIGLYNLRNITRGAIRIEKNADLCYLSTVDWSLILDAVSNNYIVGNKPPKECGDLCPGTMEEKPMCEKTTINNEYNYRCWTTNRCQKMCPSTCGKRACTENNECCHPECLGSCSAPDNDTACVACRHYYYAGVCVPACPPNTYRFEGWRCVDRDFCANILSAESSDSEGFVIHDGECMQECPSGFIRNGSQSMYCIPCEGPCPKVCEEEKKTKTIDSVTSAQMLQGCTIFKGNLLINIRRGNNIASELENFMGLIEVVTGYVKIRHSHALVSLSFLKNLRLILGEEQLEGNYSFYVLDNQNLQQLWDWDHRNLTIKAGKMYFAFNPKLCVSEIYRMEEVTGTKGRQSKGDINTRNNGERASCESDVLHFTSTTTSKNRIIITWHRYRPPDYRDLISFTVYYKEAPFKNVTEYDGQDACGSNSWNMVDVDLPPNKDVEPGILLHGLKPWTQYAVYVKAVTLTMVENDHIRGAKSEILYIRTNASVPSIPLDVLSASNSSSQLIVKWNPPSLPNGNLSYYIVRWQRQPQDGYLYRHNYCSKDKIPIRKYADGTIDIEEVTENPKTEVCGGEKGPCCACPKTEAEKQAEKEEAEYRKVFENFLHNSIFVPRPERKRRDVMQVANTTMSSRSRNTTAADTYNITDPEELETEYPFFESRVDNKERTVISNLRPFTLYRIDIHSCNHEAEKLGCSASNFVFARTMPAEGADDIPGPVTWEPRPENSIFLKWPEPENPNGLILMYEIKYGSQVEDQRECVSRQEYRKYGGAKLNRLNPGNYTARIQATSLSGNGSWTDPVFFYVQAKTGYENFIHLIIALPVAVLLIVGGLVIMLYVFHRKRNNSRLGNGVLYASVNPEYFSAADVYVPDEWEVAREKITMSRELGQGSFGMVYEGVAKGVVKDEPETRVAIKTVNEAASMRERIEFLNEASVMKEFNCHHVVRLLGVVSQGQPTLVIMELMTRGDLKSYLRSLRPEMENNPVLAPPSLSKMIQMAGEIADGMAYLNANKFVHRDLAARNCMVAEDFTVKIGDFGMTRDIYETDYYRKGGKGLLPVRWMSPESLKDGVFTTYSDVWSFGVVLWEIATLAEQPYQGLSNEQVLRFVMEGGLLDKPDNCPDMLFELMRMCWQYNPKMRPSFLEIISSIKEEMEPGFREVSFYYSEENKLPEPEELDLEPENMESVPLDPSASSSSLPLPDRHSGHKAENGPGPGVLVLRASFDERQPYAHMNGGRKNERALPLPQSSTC

- IC50 of IGF-1 stimulated receptor phosphorylation on A549 cells (pIGF-1R ELISA) [1]: 0.09 nM
- IC50 of IGF-1 stimulated receptor phosphorylation on HOCF cells (pIGF-1R ELISA) [1]: 0.09 nM
- EC50 [2]: 100 pM
- EC50 [3]: 400 pM
B1: VRDN-5000 (antibody, human IgG1, kappa)
heavy: not shown
light: DVVMTQTPLSLPVSLGDPASISCRSSQSIVHSNVNTYLEWYLQKPGQSPRLLIYKVSNRFSGVPDRFSGSGAGTDFTLRISRVEAEDLGIYYCFQGSHVPPTFGGGTKLEIKRTVAAPSVFIFPPSDEQLKSGTASVVCLLNNFYPREAKVQWKVDNALQSGNSQESVTEQDSKDSTYSLSSTLTLSKADYEKHKVYACEVTHQGLSSPVTKSFNRGEC
notes: neither was used; also called VRDN-001
